Results reported in publication PMC9882985 (Science Advances, 2023).
Each block holds one molecule with its values, some of them ahead of it.

Columns and labels:
[1] = biological target: PSME3 WT-dTomato with SUMO1 conjugation, P61289;P63165; assay: FRET; settings: in vitro; PSME3-dTomato conjugated with SUMO1 (lane 6); n = 3; parent: est. 55; read off a plot
[2] = biological target: PSME3 WT-dTomato with SUMO2 conjugation, P61289;P61956; assay: FRET; settings: in vitro; PSME3-dTomato conjugated with SUMO2 (lane 7); n = 3; parent: est. 21; read off a plot
[3] = biological target: PSME3 WT-dTomato with SUMO3 conjugation, P61289;P55854; assay: FRET; settings: in vitro; PSME3-dTomato conjugated with SUMO3 (lane 8); n = 3; parent: est. 24; read off a plot
[4] = biological target: eYFP-CP2c WT with SUMO2 conjugation; assay: FRET; settings: in vitro, n = 3, parent: est. 13, read off a plot
[5] = biological target: eYFP-CP2c WT with SUMO3 conjugation; assay: FRET; settings: in vitro; eYFP-CP2c conjugated with SUMO3 (lane 12); n = 3; parent: est. 13; read off a plot
[6] = biological target: eYFP-CP2c WT with SUMO conjugation (SUMO1), Q9ERA0;P63165; assay: FRET; settings: in vitro; eYFP-CP2c conjugated with SUMO1 (lane 6); n = 3; parent: est. 75; read off a plot
[7] = biological target: the molecule itself; assay: cross-linking + co-IP; DSP XL-IP: live transfected cells crosslinked with 2 mM DSP in PBS 3 hours on ice, lysed, immunoprecipitated, Western blot with or without DTT; cells arrested at G2-M with MG132 (Fig. 4G)

Molecule: eYFP-CP2c WT (non-SUMOylated) (from UniProt Q9ERA0) SIM m158: VGVID→KGKID
response [1]: 7% | response [2]: 9% | response [3]: 12%

B1: Flag-tagged CP2c WT (natural protein, mouse, UniProt Q9ERA0 1-502, looked up)
chain: MAWALKLPLADEVIESGLVQDFDASLSGIGQELGAGAYSMSDVLALPIFKQEESSLPPDNENEILPFQYVLCAATSPAVKLHDETLTYLNQGQSYEIRMLDNRKLGELPELNGKLVKSIFRVVFHDRRLQYTEHQQLEGWRWNRPGDRILDIDIPMSVGVIDPRANPTQLNTVEFLWDPSKRTSVFIQVHCISTEFTMRKHGGEKGVPFRVQIDTFKENGNGEYTEHLHSASCQIKVFKPKGADRKQKIDREKMEKRTPHEKEKYQPSYETTILTECSPWPEITYVNNSPSPGFNSSHSSFSLGEGNGSPNHQPEPPPPVTDNLLPTTTPQEAQQWLHRNRFSTFTRLFTNFSGADLLKLTRDDVIQICGPADGIRLFNALKGRMVRPRLTIYVCQESLQLREQQPQPQPQPQKQEDGDSNGTFFVYHAIYLEELTAVELTEKIAQLFSISPHQISQIYKQGPTGIHVVISDEMVQNFQEEACFILDTMEAETSDSYHVILK
notes: CP2c (Tfcp2), mouse cDNA, in pcDNA3-Flag; In cells part of it is SUMO1-conjugated at K50; also called Flag-CP2c; source: 293T, transfected, in lysate
stoichiometry N [7]: 2

The remaining lines, values ahead:

response ([4]; eYFP-CP2c conjugated with SUMO2 (lane 11)): 9% | response [5]: 7%
Molecule: PSME3 WT-dTomato (non-SUMOylated) (from UniProt P61289) K6R; K12R; K14R; K110R; K123R; K243R

response ([4]; eYFP-CP2c conjugated with SUMO2 (lane 7)): 16% | response [6]: 11%
Molecule: PSME3 WT-dTomato (non-SUMOylated) (from UniProt P61289) SIM m70 (ILLTN→IRRTN) + SIM m115 (LVDII→RKDII)
